Data on two substances can be found in patent publication US20180237508A1.

Test [1] deals with Human cytokeratin-8 (CK8) at the cell surface of human cancer cell lines (human) (UniProt P05787). As to the kind of experiment: flow cytometry, HCT116 +/+ cells, MAb 5 ug/mL.
Test [2] shares this target. As to the kind of experiment: flow cytometry, HT29 cells, MAb 5 ug/mL. In general terms: In flow cytometry, cells or beads pass a laser one at a time.
The target is the same in test [3]. As to the kind of experiment: flow cytometry, ISRECO-3 cells, MAb 5 ug/mL.
For test [4] the target is unchanged. The experiment in a line: flow cytometry, ISRECO-1 cells, MAb 5 ug/mL.
Test [5] shares this target. As to the kind of experiment: flow cytometry, HCT116-/- cells, MAb 5 ug/mL.
Test [6] has the same target. The experiment in a line: flow cytometry, MCF-7 cells, MAb 5 ug/mL.
Test [7] has the same target. The experiment in a line: flow cytometry, ISRECO-2 cells, MAb 5 ug/mL.

Human cytokeratin-8 (CK8) at the cell surface of human cancer cell lines (human), sequence (P05787 whole entry): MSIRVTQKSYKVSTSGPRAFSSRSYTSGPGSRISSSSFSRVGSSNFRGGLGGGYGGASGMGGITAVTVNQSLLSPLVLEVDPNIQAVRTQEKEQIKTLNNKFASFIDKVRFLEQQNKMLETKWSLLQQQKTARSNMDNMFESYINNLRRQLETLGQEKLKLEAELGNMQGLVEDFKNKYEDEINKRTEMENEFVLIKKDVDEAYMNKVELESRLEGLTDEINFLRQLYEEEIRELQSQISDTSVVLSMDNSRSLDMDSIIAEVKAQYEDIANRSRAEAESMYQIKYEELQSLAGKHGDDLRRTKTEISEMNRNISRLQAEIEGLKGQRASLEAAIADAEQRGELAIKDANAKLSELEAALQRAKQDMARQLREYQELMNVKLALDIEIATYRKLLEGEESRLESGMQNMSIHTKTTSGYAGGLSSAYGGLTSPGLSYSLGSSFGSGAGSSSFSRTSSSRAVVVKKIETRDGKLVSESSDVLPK

Regarding “M20 antibody (commercially available antibody C5301, Sigma)”, the % (labelled cells) stood at 29% in test [1]; 17% in test [2]; 33% in test [3]; 50% in test [4]; 28% in test [5]; 66% in test [6]. The % (labelled cells) in test [7] was found to be 26%. The IFM is 527 in test [1]; 497 in test [2]; 541 in test [3]; 553 in test [4]; 517 in test [5]; 476 in test [6]. The substance also yielded an IFM in test [7] of 473.

With “1E8 antibody (commercially available antibody ab28050, abcam)”, the % (labelled cells) was 35% in test [1]; 30% in test [2]; 41% in test [3]; 45% in test [4]; 38% in test [5]; 52% in test [6]. In test [7], this substance yielded a % (labelled cells) of 23%. Also, the IFM stood at 554 in test [1]; 418 in test [2]; 402 in test [3]; 562 in test [4]; 530 in test [5]; 462 in test [6]. The substance also came in with an IFM in test [7] of 424.
